Data reported in the nanobody polyreactivity screen of Harvey et al. (2022).

Assay: yeast display, Sf9 membrane polyspecificity reagent, FACS + sequencing; frameworks hold sequencing errors
Outline: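 Using colony PCR, genes from sorted yeast display clones were amplified, then sequenced on MiSeq at 2 × 250 and filtered by CDR length. The clones had been stained with 10% biotinylated, detergent-solubilized Sf9 membrane reagent for 1 hour at 4 °C and sorted by FACS into low and high (top ~1%) gates on anti-HA and streptavidin fluorescence. Polyreactivity labels come from the gate of origin.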

Sequence	polyreactivity (PSR sort gate)
QVQLVESGGGLVQAGGSLRLSCAASGSTLKYYAMGWYRQAPGKERELVARITRSSGSTYYADSVKGRFTISRDNAKNTVFLHMNSLKPEDTAVYYCNKVYKSYYCGCYDWGQGTQVTVLS	high polyreactivity
QVQLVESGGGLVQAGGSLLLSCAASGSILVTYAMGWYRQAPGKERQLVAAISRGGRTYYADSVKGRFTISRDSAKNTVYLQMKSLNPEDNAVYYCNTLTRLVYDGMGYWGQGTQVIVSS	high polyreactivity
QVQLVESGGGLVQAGGSLRLSCAASGRIFYQNAMGWYRPAPGKERELVADISSGGSTYYADSVKGRFTISRDNAKNTVYLQMNSVKPEDTAVYYCHTPSGPGTVGSYRRKWYGYWGQGTQVTVSS	low polyreactivity
QVQLVEAGGGLVQAGGSLRLSCAASGSIFSHNAMGWYRQAPGKERELVAAISVSGGTTYYADSVKGRFTISRDNAKNTVYLQMNSLKPEDTAVYYCAAKRFQGVGYLGQGTQVTVSS	high polyreactivity
QVQLVESGGGLVQAGGSLRLSCAASGSTFSVYAMGWYRQAPGKERELVATIRGRGGSTSYADSVKGRFTISRDNAKNTVYLQMNSLKPEDTAVYYCAARVVRDWASKRIILALSNYDYWGQGTQVTVSS	high polyreactivity
QVQLVESGGGLVQAGGSLLLSCAASGRTFTRYAMGWYRQAPGKERELVASITNGGGTYYADSVKGRFTMSRDNAKNTVYLQMNSLKPEDTAVYYCAKAERVTSHLYYSWGQGTQVTVSS	low polyreactivity
QVQLVESGGGLVQAGGSLRLSCAASGSTFDSNVMGWYRQAHGKERELLAAINYSGVRTYYADSVKGRFTISRDNAKNTVYLQMNSLKPEDTAVYYCNARLFSYRYPEGGYWGQGTQVTVSS	high polyreactivity
QDQLVESAGGLVQAGGSLRLSCAASASTFIVYAMGWYRQAPGKEREFVATINHSGDSTYYADSVKGRFTISRDNAKNTVYLQMNSLKPEDTAVYYCNATVVFVQYVDYDYWGQGTLVTVSS	low polyreactivity
QVQLVESGGGLVQAGGSLRLSCAASGSIFYFHALGWYRQAPGKERELVAAITRRGGSTRYADSVKGRFTISRDNAKNTVYLQMNSLKPEDTAVYYCAAVKEYSYSYKSYDVYYWGQGTQVTVSS	high polyreactivity
QVQLVESGGGLVQAGGSLRLSCAASGITIVNYVMGWYRQPPGKERELVAAISIGGGTYYADSVKGRFTISRDNAKNTVYLQMNSLKPEDTAVYYWNASYGGLSFYIGVYDTGYDYWGQGTQVTVSS	low polyreactivity
QVQLVDSGGGLVQAGGSLRLSCAASGSTFDGNTMGWYRQAPGKERELVATITNSGGNTYYADSVKGRFTISRDNAKNTVYLQMNSLKPEDTAVYYCNARRTSWRRLGNFYYWGQGTQVTVSS	high polyreactivity
QVQLVESGGGLVQAGGSLRLSCAASGSTFTINVMGWYRQAPGKERELVAAINGGGRTNYADYVKGRFTISRDNAKNTVYLQMNSLKPEDTAVYYCAADCYTYWFYQLIPDYDYWGQGTQVTVSS	low polyreactivity
QVQLVESGGGLVQAGGSLRLSCAASGFIFYSYAMGWYRQAPGKERELVAAITEDGDSTYYADSVKGRFTISRDNAKNTVYLQMNSLKPEDTAVYYCNTDLTFNGTSGDYDYWGQGTQVTVSS	low polyreactivity
KVQLVEAGGGLVQAGGSLRLSCAASGFILIYYAMGWYRQAPGKERELFAAITWSGGSTYYADSVKGRFTISRDNEKNTVYLKMNTLKQEETAVDYCAAYVGGGDSNADHDYWGQGTQVTVSA	low polyreactivity
QVQLVESGGGLVQAGGSLRLSCAASGFTFYIYAMGWYRQAPGKERELVARISSGGRTYYADSVKGRFTISRDNAKNTVYLQMNSLKPEDTAVFDCHFWYGSWGQGTQVTVSS	low polyreactivity
EVQLVESRGGLVQAGGSLRLSCAASGRIFRVYTMGWYRQAPGKERELVAAISRGGTTTYADSVKGRFTISCDNAKNTVYLQMNSLKPEDTAVYYCNARGWFRGEFDYWGQGTQVTVSS	high polyreactivity
QVQLVESGGGLVQAGGSLRLSCAASGIIFRWYTMGWYRQAPGKERELVAAISTSTGSTYYADSVKGRFTISRDNAKNTVYLQMNSLKPEDTAVYYCNARQFSGLGYWGQGTQVTVSS	high polyreactivity
QVQLVESGGGIVQAGGSLRLSCAASGSTFGSYAMGWYRQAPGKVRELVAAIYRAGSTYADSVKGRFTISRDNAKYTVYFQMNSLKPEDTAVYYCAKRDNALYYGYDYWRQGTQVTVSS	low polyreactivity
QVQLVESGGCLVQAGGSLRLSCAASGLTFPKYSMGWYRQAPGKERELVARISYSGASTYYADSVKGRFTISRDNEKNTVYLHMIILKPEDTAVYYCDARIYRVYYVNFAPYYYWGQGTQVTVSS	high polyreactivity
QVQLVESGGGIVQAGGRLRLRCAASGSNFYYNAMGWYRQAPGKERELVAAITWSGGRTYYADSVKGRFTISRDNAKNTVYLQMNSLKPEDTAVYYCNARYRASRYNYWGQGTQVTVSS	high polyreactivity
QVQLVESGGGLVQAGGSLRLSCAASGSILRRNAMGWYRPAPGKERELFAGISRGGNTNYADSVNGRFTISRDNAKNTVYLQMNSLKPEDTAVYYCDTDGYGRWGRLTFTYWGQGTQVTVSS	low polyreactivity
QVQLVESGGGLVQAGGSLRLSCAASGSTFSSNAMGWYRQAPGKEREFVAGISRSGGSTYYADSVKGRFTISRDNAKNTVYLQMNSLKPEDTAVYYCAARGGPGFKFGYWGQGTQVTVSS	high polyreactivity

Sequence	polyreactivity (PSR sort gate)
QVQLVESGGGLVQAGGSLRLSCAASGSTFFYYAMGWYRQAPGKERELVARITRGGGSTNYADSVKGRFTISRDNAKNTVYLQMNSLKREDTAVYYCAKRRKVTYDYWGQGTQVTVSS	high polyreactivity
QVQRVESGGGLVQAGGSLRLSCAASGFTLDPYAMGWYRQAPGKEREFVAAIRLSGSSTYYADSVKGRFTISRDNAKNTVYLQMNSLKPEDTAVYYCAADGISHWLYRYDYWGQGTQVTVSS	low polyreactivity
QVQLVESGGGLVQAGCSLRLSCAASGSIYLVNAMGWYRQAPGKERELVAAIDWSGDTTYYADSVKGRFTISRDYEKNTVYLQMNRLKPEDTAVYYCAAEYEFHEYDYWGQGTQVTVSS	high polyreactivity
QVQLVESGGGLVQAGGSLRLSCAASGSIFWYYAMGWYRQAPGKERELDASITRGGSTKYADSVKGRFTISLDNAKNPVYLQMNSLKPEDTAVYYCATTYRLYRVNYDYYWGQGTQVSVSS	high polyreactivity
QVQLVESGGGLVQAGGSLRLSCAASGFIFAQNAMGWYRQAPGKERELVAAISGSGGRTYYADSVKGRFTISRDNAKNTVYLQMNSLKPEDTAVYYCAAQSFSGYWGQGTQVTVSS	high polyreactivity
QVQLVESGGGLVQAGGSLRLSCAASGSIFYSNAMGWYRQAPGKERELVATIRSGGTTYYADSVKGRFTISRDNAKNTVYLQMNSLKPEDTAVYYCAKRYGVKYWGQGTQVTVSS	high polyreactivity
QVQLVESGGGLVQAGGSLRLSCAASGFTFTYYAMGWYRQAPGKERELVAAITKSGGSTYYADSVKGRFTISRDNAKNTVYLQMNSLKPEDTAVYYCAADTRYGRERYYWGQGTQVTVSS	high polyreactivity
QVQLVESGGGLVQAGGSLRLSCAASGRTSGFNTMGWYRQAPGKERELVAAISFSGGSTYYADSVKGRFTISRDNAKNTVYLQMNSLKPEDTAVYYCNALYRYLYRSGDYWGLGTQVTVSS	low polyreactivity
QVQLVESGGGLVQAGGSLRLSCAASGSIFRRNAMGWYRQAPGKERELVAAISSIGSSTYYADSVKGRFTISRDNAKNTVYLQMNSLKPEDTAVYYCAALYVQGTHTYGYWGQGTQVTVSS	high polyreactivity
QVQLVESGGGLVQAGGSLRLICAASGITLPIYAMGWYRQAPGKERELVATISQRDARTYYADSVKGRFTISRDNAKNTVYLQMNSLKPEDTAVYYCARGYKKSVQRFEYWGQGTQVTVSS	high polyreactivity
QVQLVESGGGIVQAGGSLRLSCAASGSTLHSYALGWYRQAPGKERELVAAISFRGGSTYADSVKGRFTISRDNAKNTVYVQMNSLKPEDTAVYYCATRRTRADWYIVGYDYWGQGTQVTVSS	low polyreactivity
QVQLVESGGGLVQAGGSLRLSCAASGRTFYRSALVWYRQAPGKERELVAAISYNGGSTFYADSVKGRFTISRDNAKYTVYLQMNSLKPEDTAVYYCAAGPRGTGKYYWGQGTQVTVSS	high polyreactivity
QVQLVESGGGLVQAGGSLRLSCAASGIIFFKYAMGWYRQAPGKERQLVAAITSGGSTYYADSVKGRFTISRDNEKNTVYLQMNSLKPVDTAVYYCAAAGGRFIRYGYWGQGTQVTVSS	high polyreactivity
QVQLVESGGGLVQAGGSLRLSCAASGSNYRNAMGWYRQAPGKERELVAAISSSGGRTYYADSVKGRFTISRDNAKNTVYLKMNSLKPEDTAVYYCAKVGPYWSRGKYWGQGTQVTVSS	high polyreactivity
QVQLVESWGGLVQAGGSLRLSCAATGVTFKFYAMGWYRQAPGKERELVAAISWSGTSTYYADSVKGRFTISRDNAKNTVYLQMNSLKPEDTAVYYCAADKRLRGHGYDYWGQGTQVTVSS	high polyreactivity
QFQLVESGGGLYQAGGSLRLSCASSGITLYFYAMGWYRQAPGKVRELVAAISRGGRTYYADSVKGRFTISRDNAKNTVYLQMNSLKPEDTAVYYCAARYTSEYSAFDYWGQGTQVTVSS	low polyreactivity
QVQLVETGGGLVQAGGSLRLSCPASGRTFAKYAMGRYRQAPGKERELVAAISDSGGSTYYEDSVKGRFTISRDNAKNTVYLQMNSLKPEDTAVYYCAADGRYTYYWGQGTQVTVSS	high polyreactivity
QVQLVESGGGLVQAGGSLRLSCAASGLIFPFYTMGWYRQAPGKERELVAAISYSGGSTYYADSVKGRFAISRDNAKNTVYLQMNSLKPEDTAVYYCAKSYRTTYHFWSGYDYWGQGTQVTVSS	low polyreactivity
QVQLVESGGGLVQAGGSLRLSCAASGRTFGYNAMGWYRQAPGKERELVAAIRYSGGSTYYADSVKGRFTISRDNAKNTVYLQMNSLKPEDTAVYYCAKETRRYYRGYYYWGQGTQVTVSS	high polyreactivity
QVQLVESGGGIVQAGGSLRLSCAASGRTFSTYAMGWYRQAPGKESELVARITSSGGSTYYADSVKGRFTISRDNAKNTVYFQMNSLKPEDTAVYYCAARPLVRYRMQWTGGYYYWGQGTQVTVSS	high polyreactivity
QVQLVESGGGLVQAGGSLRLSCAASGSTFNLYAIGWYRQAPGKEREFVAAIRGRGGNTYADSVKRRFTISRDNAKNTVYLQMNSLKPEDTAVYYCAAPLLRDLRSPYSYKYWGQGTQVTVSS	low polyreactivity
